From the DeepSol protein solubility set

assay: soluble on expression in E. coli; label from the status in PepcDB or PDB records

Row | Sequence | soluble on expression in E. coli
1 | MAAKRPPASTLKWCQQEMGPICEGIGMVVRSQIGYDGRRIEKQIRRKALQTVVMGGQDVDPLKEPNKTNAPLLSPTLPSTNEALQRARVVAAGIETFAKLMSQGTYPGSAGFTVSETGERKYMKQTSPVQSNIVANLMATADKLSKGVISLAPFPLPTITKLGTWVIANPTAQLPIPPQLKSAIPAIGQIETLIQSILGVQGPVSSVSRAPRKLKLEGVTDQVVLEPETIHATVDVEPIDKTLTKEEAEFLIKAARSVDDDNAETAIFGTQKAKPKVYRPELPKNFEVNLEMGNVHTLTRSNESSVPATRIGRLATFGQLAFGLLGGATAEVTRRTFGIGKRLQEEGIPKNPFLSEANADRIVATLCRVRGAALKLGQMLSIQDSSTVPPALLQIFERVRQSADFMPIKQVHRQMKDAFGDDWREKFEHFDDKPFACASIGQVHKAVLKDGRNVAVKVQYPGVAEGIDSDIDNLVSVLSVGGIFPKGMFLDAFVGVARRELKQECDYEREARAMKKFRELIADWQDVYVPEVIDELSSSRVLTTELVYGKPVDACVEEPQVVRDYIAGKFIELCLKEIFLWRFMQTDPNWSNFFLGKHPKTGEPRLVLLDFGASRAYGKKFVDIYMNIIKSAYDGDKKKIIEYSREIGFLTGYETSVMEDAHVESVMIMGETLASNHPYNFANQDVTMRIQKLIPVMLEHRLTSPPEEIYSLHRKLSGCYLLAAKLKATVSCGGLFHEIHENYVFGEDGIDINID | not soluble
2 | GMTRQRIAIDMDEVLADTLGAVVKAVNERADLNIKMESLNGKKLKHMIPEHEGLVMDILKEPGFFRNLDVMPHAQEVVKQLNEHYDIYIATAAMDVPTSFHDKYEWLLEYFPFLDPQHFVFCGRKNIILADYLIDDNPKQLEIFEGKSIMFTASHNVYEHRFERVSGWRDVKNYFNSIEK | soluble
3 | GPGSMSVKETTIALPLMVESVLDVDSGITATSAISVLDDRAVLIGTSEGSILLCAPVNESAHVLTPYSDTTLHCGAIYDLAVSSDHLVATAGHDAVSCVFPLHTFFRASGVRQCRRITGHTVPVVAVRFLSDGTSLVTLGADGRVLVAEVHSGHVLASLLCGFAATCLACSMDETQLFVGGRSLASIDLHHAMRPMSLQSVAAAASGPDPWASLSSAAAAPGAAASLRTPAWLRLYAWEEKSEATAGASRRQFRAPPHTFIRSLSVDSRDGALTATFARHAGGTSSVEVCGSARWAATGGRTASEATWAPQALQGVSAALRYPMSRDRSTGVATGKLRVRCRVKASARPSAKQTPAPPGSFASTAAALWNGRWYASPFELAGGTPRLTASHGLAETSVFTAEKSDQYGFPSAGPRTPAEELLIAQAQCDELQRECDALVFQIKSFLARKAPIR | not soluble
4 | MPMVRVATNLPDKDVPANFEERLTDLLAESMNKPRNRIAIEVLAGQRITHGASRNPVAVIKVESIGALSADDNIRHTQKITQFCQDTLKLPKDKVIITYFDLQPIHVGFNGTTVAAATM | soluble
5 | MSLKLPGKIAIMGGGSWATAIAKMCLAQEDSINWYMRRDDRIADFKRLGHNPAYLTGVKFDTKRITFSSNINDVVKESDTLIFVTPSPYLKAHLKKLKTKIKDKFIITAIKGIVPDDNVIVSEYFTKEYGVPPENIAVLAGPCHAEEVALERLSYLTIACPDKDKARIFARRLGSSFIKTSVSDDVAGIEYSSVLKNVYAIAAGICSGLKYGDNFQAVLISNAIQEMNRFLNTVHPLNRNVDDSVYLGDLLVTGYSNFSRNRTFGSMIGKGYSVKSAQIEMEMIAEGYYGTKCIKEINKHHHVNMPILDAVYNILYERISPMIEIKLLTDSFREGHHHHHH | soluble
6 | MSLLRLTSVVGIGHAEDPNPRFRKQMEDVCVMIDKLGNSHSTGFFAIYDGHGGQEAARIAGDNLHRYLLEDLLNQKLEHLLEADPLANQSMSQPTCSQAGSKLSSDGHNLSGNPSGVPKDSQLTNATMSSGVRTGTFSKDKISPSAKVRVPVPPNEPSKLGAIIRKAIQRTDDVLRQKNVLYVGCTALIALVTKYTIEFASVGDSRAVISINGTAYRCTEDHKASDKLEIDRIKSLGGTVIFGRVNGFISVSRALGDHCIKNLVTCDPFLRSYPRYPTPDSVGVTASSTNELDEFIIMACDGVWDVVTDQQSVDTVRKCLKETGSPQKAAFELKNLAIRSGTQDNVSVLVLLLREINKWEGHHHHHH | soluble
7 | MGHHHHHHSHMDSTTVNYFALFEVISHSFVRKLAPNEFPHKLYIQNYTSAVPGTCLTIRKWLFTTEEEILLNDNDLAVTYFFHQAVDDVKKGYIKAEEKSYQLQKLYEQRKMVMYLNMLRTCEGYNEIIFPHCACDSRRKGHVITAISITHFKLHACTEEGQLENQVIAFEWDEMQRWDTDEEGMAFCFEYARGEKKPRWVKIFTPYFNYMHECFERVFCELKWRKEEY | not soluble
